{"source": "paper PMC12000397", "about": "“Mechanism of client loading from BiP to Grp94 and its disruption by select inhibitors” (Nature Communications, 2025)", "binders": {"B1": {"name": "FITC-labeled proIGF2_(25-120) (domain or fragment)", "chain": "AYGPGETLSGGELVDTLQFVSSDRGFYFSRPSSRANRRSRGIVEECSFRSSDLALLETYSATPAKSERDVSTSQAVLPDDFPRYPVGKFFQYDTWR", "modifications": "FITC (maleimide) on Cys70"}, "B2": {"name": "Mouse BiP (residues 27-655) (natural protein)", "chain": "not shown", "notes": "BiP, mouse, residues 27-655; also called full-length BiP; source: E. coli BL21, purified (Ni-NTA, anion exchange, SEC); not shown: His6, N-terminal, cleaved"}, "B3": {"name": "Grp94 MD (domain or fragment)", "chain": "NDIKPIWQRPSKEVEEDEYKAFYKSFSKESDDPMAYIHFTAEGEVTFKSILFVPTSAPRGLFDEYGSKKSDYIKLYVRRVFITDDFHDMMPKYLNFVKGVVDSDDLPLNVSRETLQQHKLLKVIRKKLVRKTLDMIKKIADEKYNDTFWKEFGTNIKLGVIEDHSNRTRLAKLLRFQSSHHSTDITSLDQYVERMKEKQDKIYFMAGSSRKEAESSPFVERLLKKGYEVIYLTEPVDEYCIQALPEFDGKRFQNVAKE"}, "B4": {"name": "M86C Grp94 (natural protein, mouse, UniProt P08113 72-765, looked up)", "chain": "KSEKFAFQAEVNRMCKLIINSLYKNKEIFLRELISNASDALDKIRLISLTDENALAGNEELTVKIKCDKEKNLLHVTDTGVGMTREELVKNLGTIAKSGTSEFLNKMTEAQEDGQSTSELIGQFGVGFYSAFLVADKVIVTSKHNNDTQHIWESDSNEFSVIADPRGNTLGRGTTITLVLKEEASDYLELDTIKNLVRKYSQFINFPIYVWSSKTTVWDWELMNDIKPIWQRPSKEVEEDEYKAFYKSFSKESDDPMAYIHFTAEGEVTFKSILFVPTSAPRGLFDEYGSKKSDYIKLYVRRVFITDDFHDMMPKYLNFVKGVVDSDDLPLNVSRETLQQHKLLKVIRKKLVRKTLDMIKKIADEKYNDTFWKEFGTNIKLGVIEDHSNRTRLAKLLRFQSSHHSTDITSLDQYVERMKEKQDKIYFMAGSSRKEAESSPFVERLLKKGYEVIYLTEPVDEYCIQALPEFDGKRFQNVAKEGVKFDESEKTKESREATEKEFEPLLNWMKDKALKDKIEKAVVSQRLTESPCALVASQYGWSGNMERIMKAQAYQTGKDISTNYYASQKKTFEINPRHPLIRDMLRRIKEDEDDKTVMDLAVVLFETATLRSGYLLPDTKAYGDRIERMLRLSLNIDPEAQVEEEPEEEPED", "notes": "Grp94, mouse, residues 72-765 with the charged linker removed (Δ287-328), M86C for a designed disulfide bond; also called Grp94_(M86C); source: E. coli BL21, purified (Ni-NTA, anion exchange, SEC); not shown: His6, N-terminal, cleaved"}, "B5": {"name": "proIGF2_(92-120) fragment (Ext. Site 1), FITC-labeled (domain or fragment, UniProt P01344 92-120, looked up)", "chain": "RDVC(FITC maleimide)TPPTVLPDNFPRYPVGKFFQYDTWK", "notes": "proIGF2 residues 92-120, cysteine mutation at Ser95; also called extended site 1; source: purified from inclusion bodies (8 M urea; ion exchange and/or Ni-NTA, denaturing)"}}, "key": {"[1]": {"target": "B2", "assay": "fluorescence polarisation; 50 nM FITC-labeled client construct, BiP alone or Grp94 alone titrated; ADP conditions; 60 mM HEPES pH 7.0, 50 mM KCl, 5 mM MgCl2, 5% or 0% DMSO, 1 mM DTT, 0.75 mg/mL BSA, 1 mM ADP, 30 °C; single-site fit", "details": "both partners purified"}, "BiP/Grp94": {"target": "T1, BiP/Grp94 (mouse, UniProt P20029 27-655; P08113 72-765, Δ287-328)", "T1 construct": "BiP, mouse, residues 27-655; Grp94, mouse, residues 72-765 with the charged linker removed (Δ287-328); also called BiP and Grp94; source: E. coli BL21, each purified (Ni-NTA, anion exchange, SEC), mixed; not shown: His6, N-terminal, cleaved; copies: + 2", "T1 sequence (P20029 27-655, stated change not applied, one chain of several)": "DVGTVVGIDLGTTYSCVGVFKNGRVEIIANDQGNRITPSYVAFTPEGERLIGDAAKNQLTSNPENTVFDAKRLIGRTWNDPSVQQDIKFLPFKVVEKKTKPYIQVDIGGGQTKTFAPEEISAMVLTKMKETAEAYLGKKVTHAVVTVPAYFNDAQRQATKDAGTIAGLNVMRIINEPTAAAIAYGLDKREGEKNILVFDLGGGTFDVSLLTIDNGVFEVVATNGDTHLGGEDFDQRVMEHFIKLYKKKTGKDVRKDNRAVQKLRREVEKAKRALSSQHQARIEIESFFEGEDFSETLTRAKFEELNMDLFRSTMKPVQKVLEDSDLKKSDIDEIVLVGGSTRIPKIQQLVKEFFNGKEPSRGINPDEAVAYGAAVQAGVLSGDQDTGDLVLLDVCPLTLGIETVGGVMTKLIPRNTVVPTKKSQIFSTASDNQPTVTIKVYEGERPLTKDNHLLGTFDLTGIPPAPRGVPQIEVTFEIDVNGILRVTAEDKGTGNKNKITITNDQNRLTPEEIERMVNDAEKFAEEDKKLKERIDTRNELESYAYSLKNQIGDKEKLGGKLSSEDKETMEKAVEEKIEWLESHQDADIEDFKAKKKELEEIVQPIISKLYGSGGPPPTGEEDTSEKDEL", "assay": "fluorescence polarisation; FITC-labeled client preincubated with BiP, Grp94 then added; BiP and Grp94 varied together (Fig. 6A, B; apparent) or 5 μM BiP and 5 μM Grp94 monomer (ΔP, Fig. 6C), with and without inhibitors; ADP conditions; 60 mM HEPES pH 7.0, 50 mM KCl, 5 mM MgCl2, 1 mM DTT, 0.75 mg/mL BSA, 1 mM ADP, 30 °C", "details": "both partners purified"}, "[2]": {"target": "T2, Grp94 (residues 72-765) with the charged-linker removed (Δ287-328) (mouse, UniProt P08113 72-765, Δ287-328)", "T2 construct": "Grp94, mouse, residues 72-765 with the charged linker removed (Δ287-328); also called wild-type Grp94; source: E. coli BL21, purified (Ni-NTA, anion exchange, SEC); not shown: His6, N-terminal, cleaved", "assay": "fluorescence polarisation; FITC-labeled client preincubated with BiP, Grp94 then added; BiP and Grp94 varied together (Fig. 6A, B; apparent) or 5 μM BiP and 5 μM Grp94 monomer (ΔP, Fig. 6C), with and without inhibitors; ADP conditions; 60 mM HEPES pH 7.0, 50 mM KCl, 5 mM MgCl2, 1 mM DTT, 0.75 mg/mL BSA, 1 mM ADP, 30 °C", "details": "both partners purified"}, "[3]": {"target": "T3, FITC-labeled BiP_(D187A) NBD (mouse, FITC on Cys27 (D27C))", "T3 construct": "interface II mutant; also called FITC-D187A NBD; source: E. coli BL21, purified", "assay": "fluorescence polarisation; 50 nM FITC-labeled BiP NBD constructs, Grp94 or Grp94 MD titrated; 25 mM Tris pH 7.5, 50 mM KCl, 1 mM ADP (hexokinase-treated), 1 mM DTT; single-site binding fit", "details": "both partners purified"}, "FITC-labeled BiP NBD": {"target": "T4, FITC-labeled BiP NBD (mouse, FITC on Cys27 (D27C))", "T4 construct": "also called FITC-NBD; D27C BiP; source: E. coli BL21, purified", "assay": "fluorescence polarisation; 50 nM FITC-labeled BiP NBD constructs, Grp94 or Grp94 MD titrated; 25 mM Tris pH 7.5, 50 mM KCl, 1 mM ADP (hexokinase-treated), 1 mM DTT; single-site binding fit", "details": "both partners purified"}, "[4]": {"target": "the molecule itself", "assay": "cross-linking; 1 μM M86C Grp94 dimer, 50 mM KCl, 50 mM Tris pH 8, 4% DMSO, with or without 5 μM BiP NBD and 50 μM inhibitor; disulfide formed with 10 mM oxidized glutathione, 25 °C, 2 h; SDS-PAGE"}}, "note": "Values joined by “and” are separate entries in the source; they are usually repeats but may differ in a detail not shown here. Equal values may be shown once. Ends that are not written are not given here."}
{"binder": "B1", "values": [{"measurement": "Kd", "setting": "[1]", "value": "1500 nM and 2500 nM"}, {"measurement": "Kd", "setting": "BiP/Grp94", "value": "1100 ± 200", "unit": "nM"}]}
{"binder": "B2", "values": [{"measurement": "binding result", "setting": "[2]", "value": "binds"}]}
{"binder": "B3", "values": [{"measurement": "Kd", "setting": "[3]", "value": "6500 ± 700", "unit": "nM"}, {"measurement": "Kd", "setting": "FITC-labeled BiP NBD", "value": "5800 ± 1200", "unit": "nM"}]}
{"binder": "B4", "values": [{"measurement": "binding result", "setting": "[4]", "value": "binds"}]}
{"binder": "B5", "values": [{"measurement": "Kd", "setting": "[1]", "value": "1900 ± 500", "unit": "nM"}]}
